# Measurements published in paper PMC8584774.
# pKd: −log10 of the molar value.
# Biological target: α-cardiac actin (F-actin) (Sus scrofa)
# Test: co-sedimentation; high-speed cosedimentation; F-actin (0–40 µM) with 5 µM C0–C2 or 30 µM C2; 25 mM HEPES pH 7.3, 25 mM KCl, 5 mM MgCl2, 1 mM EGTA; 30 min at room temperature; 55,000 rpm 30 min; SDS-PAGE densitometry of supernatant and pellet; quadratic fit
pKd,percent of C2 in the pellet fraction [%],Substance
5.55,–,MyBPC C0–C2 D389V (from UniProt Q14896 1-452) (domain or fragment)
5.49,–,"MyBPC C0–C2 wt (cardiac myosin-binding protein C, N-terminal fragment with subdomains C0 to C2) (from UniProt Q14896 1-452) (domain or fragment)"
–,< 2,MyBPC C2 wt (isolated IgI-like C2 domain of cardiac myosin-binding protein C) (from UniProt Q14896 362-452) (domain or fragment)
